T1: human GFRAL expressed on cells (human, UniProt Q6UXV0 20-394)
T1 sequence: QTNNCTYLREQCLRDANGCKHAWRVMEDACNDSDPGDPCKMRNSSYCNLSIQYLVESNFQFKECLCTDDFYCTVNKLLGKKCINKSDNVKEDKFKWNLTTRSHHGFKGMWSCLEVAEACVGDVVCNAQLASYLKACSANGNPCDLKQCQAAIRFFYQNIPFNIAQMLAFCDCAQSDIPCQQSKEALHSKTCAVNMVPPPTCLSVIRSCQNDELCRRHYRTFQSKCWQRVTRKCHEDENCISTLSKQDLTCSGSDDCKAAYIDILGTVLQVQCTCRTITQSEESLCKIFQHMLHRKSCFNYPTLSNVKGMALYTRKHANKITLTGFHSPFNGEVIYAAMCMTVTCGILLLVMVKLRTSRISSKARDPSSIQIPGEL

T2: human GFRAL (analyte in Biacore assays) (human, UniProt Q6UXV0 19-351, limits assumed)
T2 construct: injected in solution over captured antibody; also called hGFRAL
T2 sequence: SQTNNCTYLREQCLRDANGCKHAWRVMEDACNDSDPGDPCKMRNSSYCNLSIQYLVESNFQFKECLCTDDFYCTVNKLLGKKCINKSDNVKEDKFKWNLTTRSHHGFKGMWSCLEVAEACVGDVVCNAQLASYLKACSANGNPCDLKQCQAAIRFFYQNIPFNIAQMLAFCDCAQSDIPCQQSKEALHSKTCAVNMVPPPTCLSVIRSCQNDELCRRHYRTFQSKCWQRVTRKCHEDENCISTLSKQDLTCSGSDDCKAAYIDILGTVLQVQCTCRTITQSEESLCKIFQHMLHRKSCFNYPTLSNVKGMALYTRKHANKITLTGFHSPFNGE

T3: mouse GFRAL (analyte in Biacore assays) (mouse, UniProt Q6SJE0 20-349, limits assumed)
T3 construct: injected in solution over captured antibody
T3 sequence: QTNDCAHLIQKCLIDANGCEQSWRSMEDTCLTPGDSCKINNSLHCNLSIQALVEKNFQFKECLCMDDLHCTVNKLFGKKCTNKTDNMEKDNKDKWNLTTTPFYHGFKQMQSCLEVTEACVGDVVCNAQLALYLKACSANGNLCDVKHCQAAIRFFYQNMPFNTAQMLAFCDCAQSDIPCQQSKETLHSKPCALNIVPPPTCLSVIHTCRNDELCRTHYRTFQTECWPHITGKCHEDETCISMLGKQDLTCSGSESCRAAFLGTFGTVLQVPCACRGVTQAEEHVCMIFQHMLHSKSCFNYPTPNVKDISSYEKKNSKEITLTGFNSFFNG

B1: antibody designated 8C10 (antibody, V domains shown)
VH: QVQLQQSGVELARPGAAVKLSCKASGYTFANYGLTWVKQRTGQGLEWIGEIYPGSGHTHYNEDFKGKATLTADRSSSTAYMELRSLTSEDSAVYFCARRIQLLLPVGGFVYWGQGTLVTVSA
VL: DFVLTQSPATLSVTPGDSVSLSCRASQSISNNLHWYQQKSHESPRLLIKYASQSISGIPSRFSGSGSGTDFTLSINSVETEDFGVYFCQQSNSWPHTFGGGTKLEIK
notes: mouse hybridoma monoclonal
B2: antibody designated 1B3 (antibody, V domains shown)
VH: QVHLQQPGAELVKPGASVKLSCKASGFTFTGYNINWVRLRPEQGLEWIGWIFPGDDNAKYNEKFKGKATLTTDKSSNTAYMQLSRLTSEDSAVYFCARTPVLSNYFDYWGQGTTLTVSS
VL: DIQMTQSPSSLSASLGGKVTITCKASQDISKYISWYQHKPGKSPRLLIHYTSTLQPGIPSRFSGSGSGRDYSFSISNLEPEDIATYYCLQYDNLYTFGGGTKLEIK
notes: mouse hybridoma monoclonal
B3: antibody designated 2B11 (antibody, V domains shown)
VH: DVQLQESGPGLVKPSQSLSLTCSVTGYSITSGYYWNWIRQFPGNKLEWMGHIANDGSNYYNPFLKHRVSITRDTSKNQFFLKLNSVTIQDTATYYCARGGSYFDYVDYWGQGTTLTVSS
VL: DIQMTQTTSSLSASLGDRVTINCRASQDISNYLNWYQQKPDGTVKLLIYYTSRLHSGVPSRFSGSGSGTDYSLTITNLEQEDIATYFCQQGNTLPFTFGSGTKLEIK
notes: mouse hybridoma monoclonal
B4: antibody designated 6G9 (antibody, V domains shown)
VH: QVQLHQPGAELVKPGASVKLSCKTSGYTFTSYWMQWVKQRPGQGLEWIGEIDPSDSYTNYNQKFKGKATLTVDTSSTTAYMQLSSLTSEDSAVYYCARPLDRSAYYFDYWGQGTTLTVSS
VL: DIVLTQSPASLAVSLGQRATISCRASESVDFSGNSFMHWYQQKPGQPPKLLIYRASNLDSGIPARFSGVGSRTDFTLTINPVEADDVATYYCQQSNEDPYTFGGGTKLEIE
notes: mouse hybridoma monoclonal
B5: antibody designated 6N16 (antibody, V domains shown)
VH: QVQLQQSGSELVKPGTSMKLSCKASGYTFTSYNINWVRLRPEQGLEWIGWIFPGDDSIKYNENFRGKATLTTDKSSSTAYMHLSRLTSDDSAVYFCARSGIFYGNNFAYWGQGTLVTVSA
VL: DVVMTQAPLILSVTIGQPASISCKSSQSLLDGDGETYLSWLLQRPGQSPKRLIYLVSKLDSGVPDRFTGSGSGTDFTLKISRVEAEDLGVYYCCQSTHFPLTFGAGTKLELK
notes: mouse hybridoma monoclonal
B6: antibody designated 2I23 (antibody, V domains shown)
VH: QAQLQQSGAELVKPGASVKLSCKASGYSFTSYNIDWVRQRPEQGLEWIGWIFPGDGSTKYNEKFKGQATLTTDKSSSTTYIHLSRLTSEDSAVYFCARSGIYYGSHFVYWGQGTLVTVSA
VL: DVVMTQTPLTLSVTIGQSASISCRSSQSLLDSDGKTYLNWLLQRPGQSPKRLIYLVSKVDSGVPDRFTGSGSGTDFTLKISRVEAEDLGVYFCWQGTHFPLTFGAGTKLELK
notes: mouse hybridoma monoclonal
B7: humanized anti-GFRAL antibody HC-375g/LC-375a (antibody, IgG1, V domains shown)
VH: QVQLVQSGAEVKKPGSSVKVSCKASGYTFTDYYINWVRQAPGQGLEWIARIYPGNGNTYHNEKFKGRATLTADKSTSTAYMELSSLRSEDTAVYYCAREGLYYDYDRYFDYWGQGTLVTVSS
VL: DIVMTQSPDSLAVSLGERATINCRASESVDTYGNSFMHWYQQKPGQPPKLLIYLASNLESGVPDRFSGSGSGTDFTLTISSLQAEDVAVYYCHQNNEDPPAFGGGTKVEIK
notes: humanized 5F12
B8: humanized anti-GFRAL antibody HC-375g/LC-375j (antibody, IgG1, V domains shown)
VH: B7 VH
VL: DIVLTQSPLSLPVTLGQPASISCRASESVDTYGNSFMHWYQQRPGQSPRLLIYLASNLESGVPDRFSGSGSRTDFTLKISRVEAEDVGVYYCHQNNEDPPAFGGGTKVEIK
notes: humanized 5F12
B9: antibody designated 1A3 (antibody, V domains shown)
VH: EVQLQQSGPELVKPGASVKISCKASGFTFTDYYMNWVKQSHGKSLEWIGDIIPNNGVTSYNQKFKGKATLTVDKSSSTAYMELRSLTSEDSAVYYCAREWLLRGMDYWGQGTSVTVSS
VL: DIVMTQAAFSNPVTLGTSASISCRSSKSLLHSNGITYLYWYLQKPGQSPQLLIYQMSNLASGVPDRFSSSGSGTDFTLRISRVEAEDVGVYYCAQHLELTWTFGGGTKLEIK
notes: mouse hybridoma monoclonal
B10: antibody designated P1B6 (antibody, V domains shown)
VH: EVQLQQSGPELVKPGASVKMSCKASGYTFTDYYMNWVKQTHGKSLEWIGDINPNNGGPIYNQKFKGKATLTVDKSSSTAYMELRSLTSEDSAVYYCARSDSAWFTYWGQGTLVTVSA
VL: QIVLTQSPAIMSASPGEKVTMTCSASSSVSYMYWYQQKPGSSPRLLIYDTSNLASGVPVRFSGSGSGTFYSITISRMEAEDAATYYCQQWNSYPPTFGGGTKLEIK
notes: mouse hybridoma monoclonal
B11: antibody designated P1H8 (antibody, V domains shown)
VH: EVQLQQSGPELVKPGASVKISCKASGYTFTDYYMNWVKQSHGKSLEWIGDINPNNGGTTYNQKFKGKATLTVDKSSSTAYMELRSLTSEDSAVYYCARQGPWYFDVWGTGTTVTVSS
VL: DVLMTQTPLSLPVSLGDQASISCRSSQTIVHSNGYTYLEWYLQKPGQSPKLLIYKVSNRFSGVPDRFSGSGSGTDFTLKISRVEAEDLGVYYCFQGSHVPWTFGGGTKLEIK
notes: mouse hybridoma monoclonal
B12: antibody designated P8G4 (antibody, V domains shown)
VH: QVQLKQSGPGLVQPSQSLSITCTVSGFSLTSYGVHWVRQSPGKGLDWLGVLWSGGSTDYNAAFISRLSISKDNSKSQVFFKMNSLQADDTAIYYCARNFGDYWGQGTSVTVSS
VL: QIVLTQSPAIMSASPGEKVTMTCSASSRVSYMHWYQQKSGTSPKRWIYDTSKLASGVPARFSGSGSGTSYSLTISSMEAEDAATYYCQQWNNNPPTFGAGTTLELK
notes: mouse hybridoma monoclonal

The binders below were run against T1, human GFRAL expressed on cells (assay: cell-based or functional assay).
With B1 the “IC50, ELK1-luciferase reporter (hGFRAL/hRET)” value (“IC50 … (hGFRAL/hRET)” below) was 1.79 nM. B2 was tested, and the “IC50 … (hGFRAL/hRET)” value was 4.14 nM. B3 was tested, and the “IC50 … (hGFRAL/hRET)” value was 7.9 nM. B4 was tested, and the “IC50 … (hGFRAL/hRET)” value was 2.65 nM. With B5 the “IC50 … (hGFRAL/hRET)” value was 1.62 nM. With B6 the “IC50 … (hGFRAL/hRET)” value was 7.18 nM.

Target: T1, human GFRAL expressed on cells
Assay: cell-based or functional assay
Remark: another data set of the same source
In the case of B1, the “IC50, ERK phosphorylation in U2OS hGFRAL/hRET cells” value (“IC50 … in U2OS hGFRAL/hRET cells” for short) is reported as 0.28 nM. For B2, the “IC50 … in U2OS hGFRAL/hRET cells” value was 0.57 nM. With B3 the “IC50 … in U2OS hGFRAL/hRET cells” value was 0.46 nM. In the case of B4, the “IC50 … in U2OS hGFRAL/hRET cells” value is reported as 0.17 nM. With B5 the “IC50 … in U2OS hGFRAL/hRET cells” value was 0.27 nM.

These binders were tested against T2, human GFRAL (analyte in Biacore assays) (assay: Biacore SPR, antibody captured, human GFRAL injected).
Experimental: Exemplary humanized anti-GFRAL antibodies identified in Example 6 were assayed for their binding affinity to human GFRAL. Binding affinity measurements were made in Biacore based assays. For example, equilibrium dissociation constant (KD) measurements were carried out with purified antibodies to evaluate their binding to human GFRAL. Using methods described in Example II, anti-mouse Fc antibody (Sigma-Aldrich, St. Louis, Mo.) was immobilized on all four flow cells of a CM5 chip using amine coupling reagents (GE Healthcare LifeSciences, Piscataway, N.J.). Purified humanized anti-GFRAL antibodies were captured (˜100 RUs) on flow cells 2, 3 and 4 using flow cell 1 as a reference. This was followed by injection of human GFRAL in PBS-P buffer) at a flow rate of 70 μL/min and the binding kinetics were evaluated at 25° C.
With B7 the Kd was 0.028 nM. B8 was tested, and the Kd was 0.057 nM.

The binders below were run against T2, human GFRAL (analyte in Biacore assays) (assay: Biacore SPR, antibody captured, GFRAL injected).
Experimental: (§1) In addition, the binding affinity of antibodies to human and mouse GFRAL were measured. For example, antibodies were rank ordered based on their binding affinity to human GFRAL and mouse GFRAL by low resolution KD measurement by Biacore. Briefly, an anti-mouse Fc antibody (Sigma-Aldrich, St. Louis, Mo.) was immobilized on all four flow cells of a CM5 chip using amine coupling reagents (GE Healthcare LifeSciences, Piscataway, N.J.). Purified antibodies were captured (˜100 RUs) on flow cells 2, 3 and 4 using flow cell 1 as a reference. This was followed by injection of human or mouse GFRAL (25 nM in PBS-P buffer) at a flow rate of 70 μL/m in and monitoring the binding kinetics at 25° C.
(§2) Binding affinity measurements were also made in additional Biacore based assays. For example, equilibrium dissociation constant (KD) measurements were carried out with purified antibodies to evaluate their binding to human GFRAL or mouse GFRAL. As mentioned above, anti-mouse Fc antibody (Sigma-Aldrich, St. Louis, Mo.) was immobilized on all four flow cells of a CM5 chip using amine coupling reagents (GE Healthcare LifeSciences, Piscataway, N.J.). Purified antibodies were captured (˜100 RUs) on flow cells 2, 3 and 4 using flow cell 1 as a reference. This was followed by injection of human or mouse GFRAL in PBS-P buffer) at a flow rate of 70 μL/min and the binding kinetics were evaluated at 25° C.
With B1 the Kd was < 0.1 nM and the koff was 7.2e-05 s⁻¹. Binder B9 has a Kd of 0.11 nM and a koff of 7.57e-05 s⁻¹. For B2, the Kd was < 0.1 nM. Binder B10 has a Kd of 0.14 nM and a koff of 9.72e-05 s⁻¹. Work on B11 yielded a Kd of 0.21 nM and a koff of 8.99e-05 s⁻¹. Work on B3 yielded a Kd of 0.1 nM and a koff of 8.45e-05 s⁻¹. B4 was tested, and the Kd was < 0.1 nM. With B5 the Kd was 0.16 nM and the koff was 9.93e-05 s⁻¹. B6 was tested, and the Kd was 0.23 nM and the koff was 6.77e-05 s⁻¹. For B12, the Kd was 0.21 nM and the koff was 0.000276 s⁻¹.

What follows are binders tested against T3, mouse GFRAL (analyte in Biacore assays) (assay: Biacore SPR, antibody captured, GFRAL injected).
Experimental: as §1, §2
B9: no binding. B2 gave a Kd of 4.4 nM and a koff of 0.00107 s⁻¹. B10: no binding. B11: no binding. Binder B3 has a Kd of 3.7 nM and a koff of 0.00144 s⁻¹. B4: no binding. B5: no binding. B6: no binding. B12: no binding.

— patent US20170306031A1 (NGM BIOPHARMACEUTICALS, published 2017)
